Results on 21 molecules are retold here after US20180193423A1 (LONGEVITY BIOTECH, published 2018).

One experiment has as its target T1, VPAC1 receptor (UniProt P32241 31-457, limits assumed).
T1 sequence (looked up): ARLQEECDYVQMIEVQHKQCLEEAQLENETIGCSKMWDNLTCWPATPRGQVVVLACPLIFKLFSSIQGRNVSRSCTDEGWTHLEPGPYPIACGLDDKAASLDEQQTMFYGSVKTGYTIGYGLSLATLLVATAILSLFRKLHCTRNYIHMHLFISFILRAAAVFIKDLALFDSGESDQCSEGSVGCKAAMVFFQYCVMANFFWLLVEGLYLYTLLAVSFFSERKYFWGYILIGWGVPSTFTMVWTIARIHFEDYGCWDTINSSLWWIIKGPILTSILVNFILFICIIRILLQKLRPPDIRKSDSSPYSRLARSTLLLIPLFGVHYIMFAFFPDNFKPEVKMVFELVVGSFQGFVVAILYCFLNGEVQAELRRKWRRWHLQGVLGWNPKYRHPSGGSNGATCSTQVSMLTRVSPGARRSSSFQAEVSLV
Kind of experiment: cell-based or functional assay.

Another experiment addresses T2, VPAC2 receptor (UniProt P41587 24-438, limits assumed).
T2 sequence (looked up): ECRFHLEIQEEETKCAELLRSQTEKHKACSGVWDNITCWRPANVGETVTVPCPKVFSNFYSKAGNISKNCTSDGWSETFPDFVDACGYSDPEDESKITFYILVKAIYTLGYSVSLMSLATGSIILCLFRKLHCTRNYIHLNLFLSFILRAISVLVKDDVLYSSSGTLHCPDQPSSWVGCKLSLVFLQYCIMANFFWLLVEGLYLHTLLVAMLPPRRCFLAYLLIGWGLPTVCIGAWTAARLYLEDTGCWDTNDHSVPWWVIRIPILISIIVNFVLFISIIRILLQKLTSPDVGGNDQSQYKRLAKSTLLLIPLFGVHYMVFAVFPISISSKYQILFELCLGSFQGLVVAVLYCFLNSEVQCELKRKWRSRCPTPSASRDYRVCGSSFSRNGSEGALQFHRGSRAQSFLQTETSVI
Kind of experiment: cell-based or functional assay.

Primed or numbered codes have the meaning given here. Where no end group is shown, it is not given here. [ ]: non-standard residue; d: D form. APC″ = 3-aminopyrrolidine-4-carboxylic acid (cyclic β-amino acid); ACPC″ = 2-aminocyclopentanecarboxylic acid (x in the sequences); APC = 3-aminopyrrolidine-4-carboxylic acid; ACPC = 2-aminocyclopentanecarboxylic acid; β3hY = N[C@H](CC(=O)O)Cc1ccc(O)cc1; β3hR = N=C(N)NCCC[C@H](N)CC(=O)O; β3hQ = NC(=O)CC[C@H](N)CC(=O)O; β3hN = NC(=O)C[C@H](N)CC(=O)O; β3hL = CC(C)C[C@H](N)CC(=O)O; β3hK = NCCCC[C@H](N)CC(=O)O; β3hV = CC(C)[C@H](N)CC(=O)O; Aib = CC(C)(N)C(=O)O; βAla = NCCC(=O)O

Regarding Ac-HSDAVFTENYTKLRKQLA[ACPC]KKY[ACPC]ND[β3hL]KKG[βAla]T (not fully specified (C-terminus); printed as Ac-HSDAVFTENYTKLRKQLAxKKYxNDlKKGgT) [LBT-V201], the “EC 50 vpac1 (Molar), cell-based cAMP assay” value (from here on “EC 50 vpac1 (Molar)”) with VPAC1 receptor came to 9.09 nM. Further, in the experiment with VPAC2 receptor, the “EC50 vpac2 (Molar), cell-based cAMP assay” value (from here on “EC50 vpac2 (Molar)”) is 104 nM.
Regarding Ac-H[Aib]DA[β3hV]FTENYTKLRKQLAA[APC]KY[ACPC]NDL[β3hK]KG[βAla]T (not fully specified (C-terminus); printed as Ac-HBDAvFTENYTKLRKQLAAzKYxNDLkKGgT) [LBT-V205], the “EC 50 vpac1 (Molar)” value with VPAC1 receptor is over 1000 nM. For the same molecule, the “EC50 vpac2 (Molar)” value in the experiment with VPAC2 receptor came to 0.816 nM.
Ac-H[ACPC]DA[β3hV]FTENYTKLRKQLAA[APC]KY[ACPC]NDL[β3hK]KG[βAla]T (not fully specified (C-terminus); printed as Ac-HxDAvFTENYTKLRKQLAAzKYxNDLkKGgT) [LBT-V210]: in the experiment with VPAC1 receptor, the “EC 50 vpac1 (Molar)” value was 1420 nM. Further, in the experiment with VPAC2 receptor, the “EC50 vpac2 (Molar)” value worked out at 0.859 nM.
The matching figures for Ac-H[ACPC″]DA[ACPC″]FTE[ACPC″][β3hY]TKLRKQ[β3hL]AA[APC″]KY[ACPC″]NDL[β3hK]KG[βAla]T (not fully specified (C-terminus); printed as Ac-HxDAxFTExyTKLRKQlAAzKYxNDLkKGgT) [LBT-V217]: 785 nM and 1.17 nM.
The matching figures for Ac-H[ACPC″]DA[β3hV]FTENYTK[β3hL]RKQLAA[APC″]KY[ACPC″]NDL[β3hK]KG[βAla]T (not fully specified (C-terminus); printed as Ac-HxDAvFTENYTKlRKQLAAzKYxNDLkKGgT) [LBT-V215]: 1420 nM and 1.33 nM.
The matching figures for Ac-H[ACPC]DA[β3hV]FTENYTKLR[β3hK]QLAA[APC]KY[ACPC]NDL[β3hK]KG[βAla]T (not fully specified (C-terminus); printed as Ac-HxDAvFTENYTKLRkQLAAzKYxNDLkKGgT) [LBT-V213]: 293 nM and 1.27 nM.
For Ac-HSDAVFTDNYTRLRKQ[ACPC″]AAK[APC″]YL[ACPC″]SIK[β3hN]KRY (not fully specified (C-terminus); printed as Ac-HSDAVFTDNYTRLRKQxAAKzYLxSIKnKRY) [LBT-V221], in the experiment with VPAC1 receptor, the “EC 50 vpac1 (Molar)” value turned out to be 0.195 nM. In addition, the “EC50 vpac2 (Molar)” value in the experiment with VPAC2 receptor amounted to 0.0784 nM.
For the molecule Ac-H[Aib]DAVFTENYTKLRKQLAA[APC]KY[ACPC]NDL[β3hK]KG[βAla]T (not fully specified (C-terminus); printed as Ac-HBDAVFTENYTKLRKQLAAzKYxNDLkKGgT) [LBT-V204], in the experiment with VPAC1 receptor, the “EC 50 vpac1 (Molar)” value came to 516 nM. The “EC50 vpac2 (Molar)” value with VPAC2 receptor was 0.529 nM.
The matching figures for Ac-H[ACPC″]DA[β3hV]FTENYTKL[β3hR]KQLAA[APC″]KY[ACPC″]NDL[β3hK]KG[βAla]T (not fully specified (C-terminus); printed as Ac-HxDAvFTENYTKLrKQLAAzKYxNDLkKGgT) [LBT-V214]: over 1000 nM and 1.37 nM.
On to Ac-HSDAVFTENYTKLRKQLAA[APC]KY[ACPC]NDL[β3hK]KG[βAla]T (not fully specified (C-terminus); printed as Ac-HSDAVFTENYTKLRKQLAAzKYxNDLkKGgT) [LBT-V202], for which, in the experiment with VPAC1 receptor, the “EC 50 vpac1 (Molar)” value was over 1000 nM. Further, the “EC50 vpac2 (Molar)” value with VPAC2 receptor turned out to be 0.963 nM.
The matching figures for Ac-H[ACPC]DA[β3hV]FTENYTKLRKQ[β3hL]AA[APC]KY[ACPC]NDL[β3hK]KG[βAla]T (not fully specified (C-terminus); printed as Ac-HxDAvFTENYTKLRKQlAAzKYxNDLkKGgT) [LBT-V211]: over 1000 nM and 1.26 nM.
For Ac-H[ACPC″]DA[ACPC″]FTE[β3hN][β3hY]TKLRKQLAA[APC″]KY[ACPC″]NDL[β3hK]KG[βAla]T (not fully specified (C-terminus); printed as Ac-HxDAxFTEnyTKLRKQLAAzKYxNDLkKGgT) [LBT-V216], the “EC 50 vpac1 (Molar)” value with VPAC1 receptor is 932 nM. Moreover, the “EC50 vpac2 (Molar)” value with VPAC2 receptor turned out to be 95.6 nM.
Regarding Ac-H[ACPC″]DA[ACPC″]FTE[ACPC″][β3hY]TKLR[β3hK]QLAA[APC″]KY[ACPC″]NDL[β3hK]KG[βAla]T (not fully specified (C-terminus); printed as Ac-HxDAxFTExyTKLRkQLAAzKYxNDLkKGgT) [LBT-V219], the “EC 50 vpac1 (Molar)” value with VPAC1 receptor came out at 461 nM. Also, the “EC50 vpac2 (Molar)” value in the experiment with VPAC2 receptor is over 1000 nM.
Ac-HSDAVFTENYTKLRKQ[ACPC]AA[APC]KYL[ACPC]DL[β3hK]KGGT (not fully specified (C-terminus); printed as Ac-HSDAVFTENYTKLRKQxAAzKYLxDLkKGGT) [LBT-V203]: the “EC 50 vpac1 (Molar)” value with VPAC1 receptor was found to be 218 nM. Besides, the “EC50 vpac2 (Molar)” value with VPAC2 receptor turned out to be 0.18 nM.
As for Ac-H[ACPC]DAVFTENYTKLRKQLAA[APC]KY[ACPC]NDL[β3hK]KG[βAla]T (not fully specified (C-terminus); printed as Ac-HxDAVFTENYTKLRKQLAAzKYxNDLkKGgT) [LBT-V207], the “EC 50 vpac1 (Molar)” value with VPAC1 receptor was over 1000 nM. Also, the “EC50 vpac2 (Molar)” value with VPAC2 receptor amounted to 0.593 nM.
Consider Ac-H[ACPC″]DA[ACPC″]FTE[ACPC″][β3hY]TKLRK[β3hQ]LAA[APC″]KY[ACPC″]NDL[β3hK]KG[βAla]T (not fully specified (C-terminus); printed as Ac-HxDAxFTExyTKLRKqLAAzKYxNDLkKGgT) [LBT-V218], for which, in the experiment with VPAC1 receptor, the “EC 50 vpac1 (Molar)” value is over 1000 nM. Further, the “EC50 vpac2 (Molar)” value with VPAC2 receptor came out at 1.02 nM.
As for Ac-H[Aib]DA[β3hV]FTE[β3hN]YTKLRKQLAA[APC]KY[ACPC]NDL[β3hK]KG[βAla]T (not fully specified (C-terminus); printed as Ac-HBDAvFTEnYTKLRKQLAAzKYxNDLkKGgT) [LBT-V206], the “EC 50 vpac1 (Molar)” value with VPAC1 receptor is over 1000 nM. Also, the “EC50 vpac2 (Molar)” value with VPAC2 receptor is 3.47 nM.
The matching figures for Ac-H[ACPC]DA[ACPC]FTENYTKLRKQLAA[APC]KY[ACPC]NDL[β3hK]KG[βAla]T (not fully specified (C-terminus); printed as Ac-HxDAxFTENYTKLRKQLAAzKYxNDLkKGgT) [LBT-V208]: 133 nM and 0.646 nM.
For Ac-HSDAVFTENYTKLRKQ[ACPC″]AAK[APC″]YL[ACPC″]DLK[β3hK]GGT (not fully specified (C-terminus); printed as Ac-HSDAVFTENYTKLRKQxAAKzYLxDLKkGGT) [LBT-V220], in that order: 9.51 nM and 0.422 nM.
The matching figures for Ac-H[ACPC]DA[β3hV]FTENYTKLRK[β3hQ]LAA[APC]KY[ACPC]NDL[β3hK]KG[βAla]T (not fully specified (C-terminus); printed as Ac-HxDAvFTENYTKLRKqLAAzKYxNDLkKGgT) [LBT-V212]: 1530 nM and 3.52 nM.
Turning to Ac-H[ACPC]DA[ACPC]FTE[ACPC]YTKLRKQLAA[APC]KY[ACPC]NDL[β3hK]KG[βAla]T (not fully specified (C-terminus); printed as Ac-HxDAxFTExYTKLRKQLAAzKYxNDLkKGgT) [LBT-V209], in the experiment with VPAC1 receptor, the “EC 50 vpac1 (Molar)” value is over 1000 nM. Moreover, the “EC50 vpac2 (Molar)” value with VPAC2 receptor was determined as 5.58 nM.
